One block for each binder: values may come before it.
Assays:
[1] = molecular target: T1, TSC2 “N” fragment (a.a. 2-935), HA-tagged (human, UniProt P49815 2-935); assay: co-IP with anti-FLAG from 293T extract, anti-HA blot (FIG. 17)
T1 construct: also called HA-“N” fragment of TSC2; not shown: HA tag

TSC2 [2] = molecular target: T2, TSC2 (human, UniProt P49815 1-1807, limits assumed); assay: co-IP from transfected 293T extract, immunoblot (FIG. 11)
T2 construct: TSC2 without a stated tag, endogenous or expressed from transfected cDNA in 293T cell extracts; also called tuberin; endogenous TSC2
T2 sequence (P49815 other isoform, or with tags, fused parts or gaps limits assumed): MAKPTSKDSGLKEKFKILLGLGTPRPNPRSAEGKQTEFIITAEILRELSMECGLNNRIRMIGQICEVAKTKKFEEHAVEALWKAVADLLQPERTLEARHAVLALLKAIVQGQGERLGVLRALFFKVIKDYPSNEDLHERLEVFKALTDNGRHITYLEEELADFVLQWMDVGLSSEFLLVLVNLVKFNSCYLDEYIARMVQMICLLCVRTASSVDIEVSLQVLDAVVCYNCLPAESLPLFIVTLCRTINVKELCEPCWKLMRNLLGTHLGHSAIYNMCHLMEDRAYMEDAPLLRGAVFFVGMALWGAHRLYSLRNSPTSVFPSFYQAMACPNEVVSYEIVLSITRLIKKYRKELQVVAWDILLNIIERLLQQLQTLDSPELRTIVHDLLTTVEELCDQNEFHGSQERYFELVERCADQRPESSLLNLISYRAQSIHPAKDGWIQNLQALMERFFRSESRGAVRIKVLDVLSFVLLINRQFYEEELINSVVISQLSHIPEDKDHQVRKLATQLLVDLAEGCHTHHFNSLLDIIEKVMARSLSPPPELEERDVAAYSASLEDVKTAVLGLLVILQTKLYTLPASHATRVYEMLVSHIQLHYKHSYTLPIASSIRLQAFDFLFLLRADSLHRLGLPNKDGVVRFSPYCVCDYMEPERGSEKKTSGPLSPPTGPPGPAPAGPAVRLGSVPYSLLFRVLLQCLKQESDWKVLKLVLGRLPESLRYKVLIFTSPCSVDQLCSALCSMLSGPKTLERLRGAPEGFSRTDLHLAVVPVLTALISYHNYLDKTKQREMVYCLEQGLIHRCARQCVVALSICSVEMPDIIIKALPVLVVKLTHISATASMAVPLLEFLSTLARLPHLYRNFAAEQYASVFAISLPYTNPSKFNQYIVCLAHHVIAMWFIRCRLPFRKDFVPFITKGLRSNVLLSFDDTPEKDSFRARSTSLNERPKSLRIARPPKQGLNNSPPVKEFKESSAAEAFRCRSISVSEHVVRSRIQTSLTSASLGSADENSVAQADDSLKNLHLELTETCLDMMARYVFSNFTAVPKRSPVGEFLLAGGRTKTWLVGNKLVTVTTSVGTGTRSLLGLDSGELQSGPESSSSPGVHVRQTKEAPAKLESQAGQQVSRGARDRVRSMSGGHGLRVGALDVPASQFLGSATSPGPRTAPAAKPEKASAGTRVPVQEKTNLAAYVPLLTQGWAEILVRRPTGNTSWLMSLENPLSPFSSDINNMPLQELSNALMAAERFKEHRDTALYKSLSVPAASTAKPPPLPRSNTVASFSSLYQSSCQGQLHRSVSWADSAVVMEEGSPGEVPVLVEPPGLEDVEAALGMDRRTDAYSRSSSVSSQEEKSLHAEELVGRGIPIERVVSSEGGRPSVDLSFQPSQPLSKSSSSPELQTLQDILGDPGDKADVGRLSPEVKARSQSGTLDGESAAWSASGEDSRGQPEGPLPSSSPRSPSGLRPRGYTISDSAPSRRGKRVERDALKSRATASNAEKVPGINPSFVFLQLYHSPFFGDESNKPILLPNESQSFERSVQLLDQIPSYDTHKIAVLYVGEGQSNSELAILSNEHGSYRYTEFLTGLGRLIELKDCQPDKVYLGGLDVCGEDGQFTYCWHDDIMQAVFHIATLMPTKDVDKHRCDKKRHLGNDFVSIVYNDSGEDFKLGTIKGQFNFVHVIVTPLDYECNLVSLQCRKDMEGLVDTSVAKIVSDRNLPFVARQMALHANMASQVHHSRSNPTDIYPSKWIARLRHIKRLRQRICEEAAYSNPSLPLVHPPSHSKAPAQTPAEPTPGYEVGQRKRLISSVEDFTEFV

HA-tagged TSC2 = molecular target: T3, HA-tagged TSC2 (human, UniProt P49815 1-1807); assay: co-IP with anti-FLAG from CoCl2-treated 293T cells (FIG. 25)
T3 construct: Expressed in 293T cells; used as cell extract; also called HA-TSC2; full length HA-tagged TSC2; not shown: HA tag
T3 sequence (P49815 other isoform, or with tags, fused parts or gaps limits assumed): as above

TSC2 [3] = molecular target: T2, TSC2; assay: summary of Example 6
TSC2 [4] = molecular target: T2, TSC2; assay: pull-down from cell extract with 6XHis baits (FIG. 13)
[5] = molecular target: T4, HA-SV5-full length hRTP801 (human, UniProt Q9NX09 1-232); assay: co-IP with M2 anti-FLAG resin from CoCl2-treated 293T HEK extract (FIG. 21)
T4 construct: Expressed in 293T HEK cells; also called HA-full length hRTP801; HA-SV5-hRTP801; not shown: HA tag; SV5 tag
T4 sequence: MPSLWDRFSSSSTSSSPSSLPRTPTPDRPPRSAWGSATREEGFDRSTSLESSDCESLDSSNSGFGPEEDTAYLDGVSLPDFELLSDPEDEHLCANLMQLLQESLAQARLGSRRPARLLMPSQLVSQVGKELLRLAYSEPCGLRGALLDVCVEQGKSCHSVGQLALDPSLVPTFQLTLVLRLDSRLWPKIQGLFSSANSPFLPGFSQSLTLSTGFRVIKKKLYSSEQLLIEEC

T1 sequence (P49815 other isoform, or with tags, fused parts or gaps): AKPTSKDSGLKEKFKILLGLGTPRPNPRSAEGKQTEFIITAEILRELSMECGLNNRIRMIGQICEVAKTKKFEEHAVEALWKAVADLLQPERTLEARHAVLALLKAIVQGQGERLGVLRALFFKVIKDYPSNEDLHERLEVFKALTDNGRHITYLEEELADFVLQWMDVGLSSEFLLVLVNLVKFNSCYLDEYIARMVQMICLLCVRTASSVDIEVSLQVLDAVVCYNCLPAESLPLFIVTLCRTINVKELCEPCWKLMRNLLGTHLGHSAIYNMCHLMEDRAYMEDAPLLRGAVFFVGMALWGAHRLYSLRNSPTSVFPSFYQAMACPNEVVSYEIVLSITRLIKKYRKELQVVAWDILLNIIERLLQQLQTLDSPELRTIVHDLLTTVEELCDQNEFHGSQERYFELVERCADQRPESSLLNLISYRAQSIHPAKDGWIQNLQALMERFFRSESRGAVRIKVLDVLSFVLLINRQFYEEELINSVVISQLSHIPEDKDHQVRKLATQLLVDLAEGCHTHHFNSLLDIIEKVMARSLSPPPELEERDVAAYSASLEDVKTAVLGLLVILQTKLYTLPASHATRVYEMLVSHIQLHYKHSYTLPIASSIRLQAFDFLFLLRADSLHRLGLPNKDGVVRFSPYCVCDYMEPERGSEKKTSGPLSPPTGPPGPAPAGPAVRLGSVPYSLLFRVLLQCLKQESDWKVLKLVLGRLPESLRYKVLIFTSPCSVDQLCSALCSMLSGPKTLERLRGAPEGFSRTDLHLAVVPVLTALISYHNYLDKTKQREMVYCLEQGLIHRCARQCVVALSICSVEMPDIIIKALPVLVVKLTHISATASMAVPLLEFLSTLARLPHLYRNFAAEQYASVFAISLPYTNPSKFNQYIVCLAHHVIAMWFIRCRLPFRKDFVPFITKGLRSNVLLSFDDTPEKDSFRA

- binding result [1]: binds
- binding result (TSC2 [2]): binds
- binding result (HA-tagged TSC2): binds
B1: FLAG-hRTP801 (other)
chain: MPSLWDRFSSSSTSSSPSSLPRTPTPDRPPRSAWGSATREEGFDRSTSLESSDCESLDSSNSGFGPEEDTAYLDGVSLPDFELLSDPEDEHLCANLMQLLQESLAQARLGSRRPARLLMPSQLVSQVGKELLRLAYSEPCGLRGALLDVCVEQGKSCHSVGQLALDPSLVPTFQLTLVLRLDSRLWPKIQGLFSSANSPFLPGFSQSLTLSTGFRVIKKKLYSSEQLLIEEC
notes: Expressed by transient transfection in 293T cells; full length hRTP801 with FLAG tag; also called FLAG-full length hRTP801; FLAG-RTP801; not shown: FLAG tag

- binding result (TSC2 [3]): binds
B2: hRTP801 (other)
chain: MPSLWDRFSSSSTSSSPSSLPRTPTPDRPPRSAWGSATREEGFDRSTSLESSDCESLDSSNSGFGPEEDTAYLDGVSLPDFELLSDPEDEHLCANLMQLLQESLAQARLGSRRPARLLMPSQLVSQVGKELLRLAYSEPCGLRGALLDVCVEQGKSCHSVGQLALDPSLVPTFQLTLVLRLDSRLWPKIQGLFSSANSPFLPGFSQSLTLSTGFRVIKKKLYSSEQLLIEEC
notes: also called endogenous hRTP801; exogenous hRTP801

- binding result (TSC2 [4]): no binding
B3: 6XHis hRTP801 N-fragment (other)
chain: MPSLWDRFSSSSTSSSPSSLPRTPTPDRPPRSAWGSATREEGFDRSTSLESSDCESLDSSNSGFGPEEDTAYLDGVSLPDFELLSDPE
notes: not shown: 6XHis tag

- binding result [5]: binds
B4: FLAG-(N-C2)hRTP801 (other)
chain: MPSLWDRFSSSSTSSSPSSLPRTPTPDRPPRSAWGSATREEGFDRSTSLESSDCESLDSSNSGFGPEEDTAYLDGVSLPDFELLSDPEDEHLCANLMQLLQESLAQARLGSRRPARLLMPSQLVSQVGKELLRLAYSEPCGLRGALLDVCVEQGKSCHSVGQLALDPSLVPTFQLTLVLRLDSRLWPKIQGLFSS
notes: also called hRTP801 N-C2 fragment; hRTP801 N-C2 mutant; not shown: FLAG tag
